The values below come from PMC9033776, “Chromatin profiling in human neurons reveals aberrant roles for histone acetylation and BET family proteins in schizophrenia” (Nature Communications, 2022).

Where no end group is shown, it is not given here.

The target of this assay is T1, Bromo1-linker(GGS)5-Bromo2 of BRD4 (UniProt O60885 54-168; O60885 351-457).
T1 construct: BRD4 bromo1; (GGS)5 linker that replaces the stretch between the two bromodomains; BRD4 bromo2; the limits of the two domains in the fusion are not restated; also called Bromo1-linker-Bromo2 of BRD4; source: E. coli, purified using the same procedure as the single bromodomains
The experiment in a line: ITC; 3 mM H2A.Z peptides titrated into 0.3 mM bromodomains; 25 °C; 20 mM Hepes-Na pH 7.5, 100 mM NaCl; One Set of Binding Sites model. The settings on record: both partners purified.

For AGGK(Ac)AGK(Ac)DSGK(Ac)AKTKC (also: cross-linked via C-terminal cysteine) [H2A.ZK4ac7ac11ac peptides cross-linked by a C-terminal cysteine], the “fold stronger binding than Bromo1 of BRD4” value amounted to 6.49 fold and the “fold stronger binding than Bromo2 of BRD4” value was 1.7 fold.
